The values that follow come from patent US20260125468A1 (NONA BIOSCIENCES SUZHOU, published 2026).

The target of assay [1] is T1, CD3/TCR complex on Jurkat cells (ATCC, TIB-152) and Jurkat-NFAT-Luc reporter cells (human, UniProt P07766 23-207; P04234 22-171; P09693 23-182; P20963 22-164).
T1 construct: whole, on cells; also called CD3/TCR-positive Jurkat cells; TCR/CD3 complex
The assay is described as follows: FACS on Jurkat cells, purified antibody [A]. How it is done: The binding activities to target cells for the supernatants A1-monoFc (PR005860) and E2-monoFc (PR005861) were evaluated by FACS. The supernatants of the recombinant antibodies (i.e. A1-monoFc, E2-monoFc) were diluted from bulk solution to 8 different concentrations by 3-fold serial dilution. […] The cells were washed twice with staining buffer and subjected to flow cytometry. The data were processed by FlowJo v10 (FlowJo, LLC) and non-linear curve fitting analyzed by GraphPad Prism 8.
The binding activities to Jurkat and J.RT3-T3.5 cells for purified A1-HCAb (PR006364), E2-HCAb (PR006365) were determined by FACS, following the method described in Example 2. As shown in (A) and (B of FIG. 8, PR006364 and PR006365 can bind to Jurkat cells but not to J.RT3-T3.5 cells, which is consistent with the result in FIG. 1.

Assay [2] deals with T2, Biotinylated human CD3e&d protein (Acro Biosystems, CDD-H82W6) (human, UniProt P07766 23-126; P04234 22-105, biotinylated protein; chain and site not stated).
T2 construct: Bought protein loaded on SA Octet biosensors; also called human CD3 protein
Nature of the assay: BLI (Octet RED96e), biotinylated antigen on SA biosensors, antibody 0.375-12 nM. How it is done:
(§1) To determine the binding affinities of anti-CD3 antibodies to human or cynomolgus monkey CD3e&d heterodimer proteins, bio-layer interferometry (BLI) assays were carried out by using Octet® RED96e.
(§2) Biotinylated human CD3e&d protein (Acro Biosystems, CDD-H82W6) or biotinylated cynomolgus CD3e&d protein (Acro Biosystems, CDD-C82W6) was first loaded onto the surface of SA Octet biosensors (Sartorius, 18-5019) to reach capture levels between 0.5-0.8 nm. The loaded biosensors were then dipped in wells containing 2-fold serial dilutions of testing antibodies to detect association signals, followed by dissociation steps in wells containing kinetic buffer. The association phase was 180 seconds, and the dissociation phase was 900 seconds. The sensorgrams were recorded, and the reference signals were subtracted before curve fitting using ForteBio Data Analysis 11.0 software. Association rates (kon) and dissociation rates (koff) were calculated using a simple one-to-one Langmuir binding model. The equilibrium dissociation constant (KD) was calculated as the ratio of koff/kon.

A further assay has as its target T3, human CD3e&d-llamaFc.
T3 construct: also called hCD3e&d-llamaFc; Human CD3 epsilon & CD3 delta Heterodimer Protein fused with Llama Fc (Acro Biosystems, CDD-H5258); not shown: The llama Fc, any linker to it, and which chain or chains carry it
T3 epsilon: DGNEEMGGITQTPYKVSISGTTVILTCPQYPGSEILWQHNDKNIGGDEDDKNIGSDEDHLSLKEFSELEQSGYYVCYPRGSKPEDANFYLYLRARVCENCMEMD
T3 delta: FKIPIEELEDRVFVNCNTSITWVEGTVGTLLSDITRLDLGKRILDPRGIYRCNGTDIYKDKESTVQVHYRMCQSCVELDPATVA
Nature of the assay: ELISA, plate coated with human CD3e&d-llamaFc at 1 µg/mL, anti-human IgG Fc-HRP [A]. As to the method: (§3) ELISA assays were conducted as briefly described: CD3 proteins were coated onto ELISA plates at 1 μg/mL; testing antibodies OKT3 and PR006364 (A1-HCAb) were diluted from 2 μg/mL to 8 different concentrations by 3-fold serial dilution, or testing antibodies PR006370 (SP34) and PR010991 (3G11-HCAb) were diluted from 100 nM to 11 different concentrations by 2-fold serial dilution; secondary antibody (anti-human IgG Fc-HRP) was used to detect PR006364, PR006370 and PR010991, and secondary antibody (anti-mouse IgG Fc-HRP) was used to detect OKT3 binding signal. The absorption signal at 450 nm (OD450) was recorded by plate reader (Molecular Devices, SpectraMax), and the data were processed and non-linear curve fitting analyzed by GraphPad Prism 8.

In assay [3] the target is human CD3E&D heterodimer protein (construct not specified; FIG. 9A and FIG. 12) (human, UniProt P07766 23-126; P04234 22-105). The assay is described as follows: ELISA on coated human CD3e&d heterodimer protein (construct not named on the sheet). (In general: An ELISA detects its analyte on a solid surface through an enzyme-linked reagent.)
Assay [4] deals with T4, hCD3e-his, Human CD3 epsilon Protein with His Tag (Acro Biosystems, CDE-H5223) (Human, UniProt P07766 23-126).
T4 construct: Bought protein; also called human CD3E monomeric protein; monomeric CD3E; not shown: His Tag
Nature of the assay: ELISA, plate coated with human CD3e-his at 1 µg/mL, anti-human IgG Fc-HRP [E]. As to the method:
as §3

The target of assay [5] is T5, cynoCD3e&d-his, Cynomolgus CD3 epsilon & CD3 delta Heterodimer Protein (Acro Biosystems, CDD-C52W4) (Cynomolgus, UniProt Q95LI5 22-117; Q95LI8 22-105).
T5 construct: Bought protein; also called cynomolgus CD3E&D heterodimer protein; not shown: His Tag fused to C-terminus of CD3 epsilon chain; Flag Tag fused to C-terminus of CD3 delta chain
T5 sequence (Q95LI5 22-117, stated change not applied, chain 1 of 2): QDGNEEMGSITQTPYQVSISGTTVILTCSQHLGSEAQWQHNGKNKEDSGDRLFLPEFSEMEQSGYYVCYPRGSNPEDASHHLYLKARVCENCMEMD
T5 sequence (Q95LI8 22-105, stated change not applied, chain 2 of 2): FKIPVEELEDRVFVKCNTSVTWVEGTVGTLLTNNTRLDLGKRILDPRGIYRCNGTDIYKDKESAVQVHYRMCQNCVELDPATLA
Nature of the assay: ELISA, plate coated with cyno CD3e&d-his at 1 µg/mL, anti-human IgG Fc-HRP [C]. How it is done:
as §3

Assay [6] has as its target T6, hCD3e&d-his, Human CD3 epsilon & CD3 delta Heterodimer Protein with His Tag (Acro Biosystems, CDD-H52W1) (Human, UniProt P07766 23-126; P04234 22-105).
T6 construct: Bought protein; also called human CD3E&D heterodimer protein; not shown: His Tag fused to C-terminus of CD3 epsilon chain
Nature of the assay: ELISA, plate coated with human CD3e&d-his at 1 µg/mL, anti-human IgG Fc-HRP [B]. As to the method: as §3

Assay [7] has as its target T7, hCD3e&g-his, Human CD3 epsilon & CD3 gamma Heterodimer Protein with His Tag (Acro Biosystems, CDG-H52W5) (Human, UniProt P07766 23-126; P09693 23-116).
T7 construct: Bought protein; also called human CD3E&G heterodimer protein; not shown: His Tag fused to C-terminus of CD3 epsilon chain
Nature of the assay: ELISA, plate coated with human CD3e&g-his at 1 µg/mL, anti-human IgG Fc-HRP [D]. How it is done:
as §3

The target in assay [8] is T2, Biotinylated human CD3e&d protein (Acro …). The assay is described as follows: BLI (Octet RED96e), biotinylated antigen on SA biosensors, antibody 1.5-24 nM. As to the method:
as §1, §2
A general note: Biolayer interferometry detects binding as a change in optical thickness at a sensor tip.

For assay [9], the target named is T8, Biotinylated cynomolgus CD3e&d protein (Acro Biosystems, CDD-C82W6) (cynomolgus, UniProt Q95LI5 22-117; Q95LI8 22-105, biotinylated protein; chain and site not stated).
T8 construct: Bought protein loaded on SA Octet biosensors
T8 sequence (Q95LI5 22-117, chain 1 of 2): as the sequence (Q95LI5 22-117, stated change not applied, chain 1 of 2) above
T8 sequence (Q95LI8 22-105, chain 2 of 2): as the sequence (Q95LI8 22-105, stated change not applied, chain 2 of 2) above
The assay is described as above. How it is done: as §1, §2

Assay [10] deals with T9, hCD3d-his, Human CD3 delta Protein with His Tag (Acro Biosystems, CDD-H5224) (Human, UniProt P04234 22-105).
T9 construct: Bought protein; also called monomeric CD3D; not shown: His Tag
Nature of the assay: ELISA, plate coated with human CD3d-his at 1 µg/mL, anti-human IgG Fc-HRP [F]. As to the method:
as §3

Positions count from the first letter of the chain named. Numbers in names are those of the source.

T1 sequence (P09693 23-182, chain 3 of 2): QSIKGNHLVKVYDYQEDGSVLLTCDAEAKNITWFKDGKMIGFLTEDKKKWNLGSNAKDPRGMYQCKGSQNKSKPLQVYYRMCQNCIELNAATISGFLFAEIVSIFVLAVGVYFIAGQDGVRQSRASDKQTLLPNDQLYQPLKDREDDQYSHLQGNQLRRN
T1 sequence (P20963 22-164, chain 4 of 2): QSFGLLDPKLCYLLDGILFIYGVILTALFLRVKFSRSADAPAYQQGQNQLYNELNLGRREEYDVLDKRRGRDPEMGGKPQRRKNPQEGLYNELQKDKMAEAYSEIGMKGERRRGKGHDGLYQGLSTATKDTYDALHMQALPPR

B1: PR006364, anti-CD3 A1-HCAb hIgG1(C220S, AAG) (antibody, V domains shown)
VH: RIRLVESGGGLVQAGGSLRLSCAASGRTSGIPAMAWFRQAPGKEREFVAMAWSGGGTIYGDSVKNRFTISRDNTQNTIFLQMNSLKPEDTALYYCAAGRSTSNRADQYNYWGQGTQVTVSS
notes: Heavy-chain-only antibody, VHH fused to conventional human IgG1 Fc (C220S, L234A, L235A, P329G)
In general, EC50 (read off the curve) refers to the concentration needed to bring the measured effect to its halfway point. High values mean a less potent agent, low ones a more potent agent. The Kd is the free concentration of one partner at which half of the binding sites on the other are occupied at equilibrium, for simple one-to-one binding. In general, koff refers to a measure of how fast the partners let go of each other. Read a high koff as fast dissociation. In general, kon refers to the second-order rate constant of association. High values mean faster complex formation, low ones slower complex formation. With B1, the results for the “EC50 (read off the curve)” value (in assay [1]; with human CD3e&d-llamaFc; in [3]) were about 2000 pM, about 0.03 µg/mL and about 700 pM, respectively. In addition, the Kd in assay [2] was 34.2 pM. Further, the koff in assay [2] turned out to be 2.49e-05 s⁻¹. Further, in [2], the kon is 727000 M⁻¹ s⁻¹.

B2: PR011628, anti-CD3 S135 HCAb hIgG1(C220S,AAG) (antibody, V domains shown)
VH: EVQLLESGGGLVQPGGSLRLSCAASGRTSGIPAMSWVRQAPGKGLEWVAMAWSGGGTIYADSVKGRFTISRDNSKNTLYLQMNSLRAEDTAVYYCAAGRSTSNRADQYNYWGQGTLVTVSS
notes: Humanized variant of PR006364; heavy-chain-only antibody
Consider B2, for which, in assay [3], the binding result is reported as “binds”.

B3: PR011629, anti-CD3 S136 HCAb hIgG1(C220S,AAG) (antibody, V domains shown)
VH: B2 VH with G44E, L45R, W47F, L116Q
notes: as for B2
In assay [2], B3 had a dissociation constant Kd of 168 pM, a koff of 0.00014 s⁻¹ and a kon of 833000 M⁻¹ s⁻¹.

B4: PR011631, anti-CD3 S138 HCAb hIgG1(C220S,AAG) (antibody, V domains shown)
VH: B2 VH with R104Y
notes: as for B2
Turning to B4, the binding result in [3] was “binds”.

B5: PR011630, anti-CD3 S137 HCAb hIgG1(C220S,AAG) (antibody, V domains shown)
VH: B2 VH with G44E, L45R, W47F, R104Y, L116Q
notes: as for B2
Regarding B5, the binding result in assay [3] was “binds”.

B6: PR011632, anti-CD3 S140 HCAb hIgG1(C220S,AAG) (antibody, V domains shown)
VH: B2 VH with L5V, S35A, V37F, A97R
notes: as for B2
With B6, the binding result in [3] is on record as “binds”.

B7: PR006365, anti-CD3 E2-HCAb hIgG1(C220S, AAG) (antibody, V domains shown)
VH: EVQLVESGGGLVQAGGSLRLSCAASGRTNGIPAMAWFRQAPGKEREFVAMAWSGGGTIYGDSVKNRFTISRNNAQNTISLQMSSLRPEDTALYFCAAGRTTSNKADHYNYWGQGTQVTVSS
notes: Heavy-chain-only antibody, human IgG1 Fc (C220S, L234A, L235A, P329G)
For the molecule B7, the “EC50 (read off the curve)” value in assay [1] is about 9000 pM.

B8: PR006370, anti-CD3 SP34 chimeric hIgG1(AAG) (antibody, V domains shown)
VH: EVQLVESGGGLVQPKGSLKLSCAASGFTFNTYAMNWVRQAPGKGLEWVARIRSKYNNYATYYADSVKDRFTISRDDSQSILYLQMNNLKTEDTAMYYCVRHGNFGNSYVSWFAYWGQGTLVTVSA
VL: QAVVTQESALTTSPGETVTLTCRSSTGAVTTSNYANWVQEKPDHLFTGLIGGTNKRAPGVPARFSGSLIGDKAALTITGAQTEDEAIYFCALWYSNLWVFGGGTKLTVLG
notes: Mouse/human chimeric antibody, human IgG1 Fc-silent variant (L234A, L235A, P329G)
As to B8, the “EC50 (read off the curve)” value in assay [4] was about 800 pM; in [5], about 700 pM; in assay [6], about 600 pM; in assay [7], about 800 pM.

B9: PR010991, anti-CD3 3G11-HCAb hIgG1(C220S, AAA) (antibody, V domains shown)
VH: RVHLAESGGGLVQAGGSLRLSCAASGSRLNDNAMAWFRQAPGKEREFVGSIFWTGGNTYYADAVKGRLTISRDNAKNALYLQMNSLKPEDTAVYYCAASRVVWYYCSGYGCSRAGDYVYWGQGTQVTVSS
notes: Heavy-chain-only antibody, human IgG1 Fc (C220S, L234A, L235A, G237A)
For B9, the Kd in assay [8] and in [9] was under 1 pM throughout. In addition, the koff in assay [8] and in assay [9] was under 1e-07 s⁻¹ in each case. In addition, the kon amounted to 906000 M⁻¹ s⁻¹ in assay [8] and 708000 M⁻¹ s⁻¹ in assay [9]. The binding result in assay [10], in [4] and in [7] was “no binding (tested: 100 nM)” throughout. Further, the “EC50 (read off the curve)” value was about 2000 pM in assay [5] and about 900 pM in assay [6].
